# Results as given in doi:10.1101/2020.05.06.071340.
# T1: TOC1-CCT (Arabidopsis, UniProt Q9LKL2 533-575)
# T1 chain: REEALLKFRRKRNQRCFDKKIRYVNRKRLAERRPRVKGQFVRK
# T2: CCTN (Arabidopsis, UniProt Q9LKL2 533-565)
# T2 chain: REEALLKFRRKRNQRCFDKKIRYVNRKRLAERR
# T3: CCT (NMR construct) (Arabidopsis, UniProt Q9LKL2 533-590)
# T3 sequence: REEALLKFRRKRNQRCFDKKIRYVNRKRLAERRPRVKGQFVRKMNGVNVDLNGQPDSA
# How the values were obtained:
# TOC1-CCT [1] = target: T1, TOC1-CCT; assay: EMSA
# TOC1-CCT [2] = target: T1, TOC1-CCT; assay: ITC
# CCTN = target: T2, CCTN; assay: NMR
# CCT (NMR construct) = target: T3, CCT (NMR construct); assay: NMR
Binder,Kd (TOC1-CCT [1]),Kd (TOC1-CCT [2]),binding result (CCTN),binding result (CCT (NMR construct))
AAAUAAAUGGAGGGGAAAAAUAAAU (ssRNA) [G-rich RNA probe],0.11 ± 0.006 µM,0.124 ± 0.008 µM,,
UGGAGGGGA (ssRNA) [NMR RNA],,,binds,binds
